In PMC3097224, “Mth10b, a Unique Member of the Sac10b Family, Does Not Bind Nucleic Acid” (PLoS ONE, 2011):

Molecular target: the molecule itself
Assay: AUC; sedimentation velocity, 60000 rpm, 20°C, buffer F (50 mM Na2HPO4-NaH2PO4/pH 7.5), protein at 0.6 and 1.0 mg/mL, absorption at 238 nm

B1: Mth10b from Methanobacterium thermoautotrophicum ΔH (natural protein, UniProt O27527 2-91, looked up)
chain: SEENVVYIGNKPVMNYVLAVVTQMNGGTSEVILKARGIAISRAVDVAEIVRNRFIPDIQIENIDICTEEIIGNEGTATNVSAIEIQLRKD
notes: Mth10b, Sac10b family protein of Methanobacterium thermoautotrophicum ΔH, gene MTH1483; whole gene cloned with primers from the start codon to the stop codon; No tag (pET11a, NdeI/BamHI); also called MTH1483; source: Escherichia coli BL21 (DE3), pET11a, purified (Q Sepharose Fast Flow, Phenyl Sepharose High Performance, Resource-S)
- stoichiometry N: 2
